The assay addresses T1, I53-50A.
T1 construct: Trimeric nanostructure component without antigen, used in the 33% and 66% valency particles; also called I53-50A trimers
T1 chain: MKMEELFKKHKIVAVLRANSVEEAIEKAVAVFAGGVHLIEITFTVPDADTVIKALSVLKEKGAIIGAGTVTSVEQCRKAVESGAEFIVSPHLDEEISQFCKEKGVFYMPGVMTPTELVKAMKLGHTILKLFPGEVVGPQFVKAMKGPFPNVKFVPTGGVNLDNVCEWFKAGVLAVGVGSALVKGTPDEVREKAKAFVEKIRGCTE
The assay is described as follows: in vitro co-assembly of partial valency particles.

B1: I53-50B.4PosT1 (designed binder)
chain: MNQHSHKDHETVRIAVVRARWHAEIVDACVSAFEAAMRDIGGDRFAVDVFDVPGAYEIPLHARTLAETGRYGAVLGTAFVVNGGIYRHEFVASAVINGMMNVQLNTGVPVLSAVLTPHNYDKSKAHTLLFLALFAVKGMEAARACVEILAAREKIAA
notes: Pentameric nanostructure component expressed in E. coli; the N-terminal methionine is said to be optional; also called I53-50B.4PT1; I53-50B.4PT
As to B1, the binding result is reported as “binds”.

Source of the values: US20200397886A1 (University of Washington, published 2020).
